This is an account of results in patent US20260355328A1, “A complex comprising a cargo and a targeting moiety binding intelectin-1” (Stichting Radboud universitair medisch centrum, priority 2022, published 2026).

“Also recorded” adds a separate entry of the source.

The conditions of data set [1]: literature; cited from earlier work.
Data set [2] can be described thus: Biodistribution of full-length lactoferrin, lactoferricin and hLF-6 in LPS-challenged mice (IVIS). Conditions: fluorescent label, i.v., 2 h. In kind it is in vivo. As to the method: Lactoferrin and lactoferricin are cloned in an expression plasmid containing the C-terminal Sortase-sequence protein-LPETG-HHHHHH. LPETGHHHHHH is SEQ ID NO: 98. Next, the protein is expressed overnight in E. coli and purified from sonicated bacterial cell lysates by Ni-NTA beads using 400 mM imidazole to elute the proteins. After overnight dialysis, full-length lactoferrin and hLF-6 are labelled by means of a Sortase exchange reaction on the C-terminus with a fluorescent dye (Alexa647 or Cy5.5) for 2 h at 4 °C using a fluorescently labelled donor peptide (formula:biotin-GSSG-LPETG-label or biotin-GSSG-LPETG-PEG40k-label) as substrate GSSGLPETG is SEQ ID NO: 99. Excess donor peptide is removed by means of streptavidin binding of the biotin tag on the N-terminus of the donor peptide. Next, the purified labelled protein/peptide is injected into LPS-challenged mice via intravenous injection in the tail vein. Mice are sacrificed after 2 h, and organs harvested for imaging by IVIS. Biodistribution is quantified for each organ, and relative distribution is shown.

For the next data set, the system named is ITLN-1. Conditions: intestinal epithelial cells, literature; cited from earlier work.
For data set [3] the following is noted: literature; cited from earlier work. This is another data set of the same source.

B1: full-length lactoferrin: full-length human lactoferrin protein (protein, UniProt P02788 1-710, looked up)
chain: MKLVFLVLLFLGALGLCLAGRRRSVQWCAVSQPEATKCFQWQRNMRKVRGPPVSCIKRDSPIQCIQAIAENRADAVTLDGGFIYEAGLAPYKLRPVAAEVYGTERQPRTHYYAVAVVKKGGSFQLNELQGLKSCHTGLRRTAGWNVPIGTLRPFLNWTGPPEPIEAAVARFFSASCVPGADKGQFPNLCRLCAGTGENKCAFSSQEPYFSYSGAFKCLRDGAGDVAFIRESTVFEDLSDEAERDEYELLCPDNTRKPVDKFKDCHLARVPSHAVVARSVNGKEDAIWNLLRQAQEKFGKDKSPKFQLFGSPSGQKDLLFKDSAIGFSRVPPRIDSGLYLGSGYFTAIQNLRKSEEEVAARRARVVWCAVGEQELRKCNQWSGLSEGSVTCSSASTTEDCIALVLKGEADAMSLDGGYVYTAGKCGLVPVLAENYKSQQSSDPDPNCVDRPVEGYLAVAVVRRSDTSLTWNSVKGKKSCHTAVDRTAGWNIPMGLLFNQTGSCKFDEYFSQSCAPGSDPRSNLCALCIGDEQGENKCVPNSNERYYGYTGAFRCLAENAGDVAFVKDVTVLQNTDGNNNEAWAKDLKLADFALLCLDGKRKPVTEARSCHLAMAPNHAVVSRMDKVERLKQVLLHQQAKFGRNGSDCPDKFCLFQSETKNLLFNDNTECLARLHGKTTYEKYLGPQYVAGITNLKKCSTSPLLEACEFLRK
modifications: full-length
notes: full-length human lactoferrin protein
B1: the “biodistribution of radioactive-labelled full-length protein” value in data set [1] is “comprise multiple organs and not primarily the kidney; also recorded: distribution to many organs”. Besides, the bio-distribution entry in data set [2] was “accumulation predominantly in liver and spleen and less in kidney, brain and intestine”. Further, the “uptake upon overexpression of ITLN-1” value in the data set with ITLN-1 is listed as “increases uptake of lactoferrin in endosomes”. Further, the ribonuclease activity entry in data set [3] is recorded as “pyrimidine-specific ribonuclease activity”.
